# According to article PMC5167558 (Biochemistry, 2015):
# B1: His6-SPAK 63–390 (domain or fragment)
# chain: not shown
# Biological target: GST-SPAK 63–390 (mouse, UniProt Q9Z1W9 63-390)
# Assay: pull-down
binder,measurement,value
B1,binding result,binds
